In patent US20100144645A1, “COMPOSITIONS AND METHODS FOR ENHANCING […] POTENCY OF […]-COMPOUNDS, A[…] ADVERSE SIDE EFFECTS, AND […] ABUSE” (SHIRE LLC, priority 2006, published 2010):
Residues, ends and D or L forms follow the SMILES beside them. *: point of attachment. X1 = COc1ccc2c3c1OC1C(O*)=CCC4[C@@H](C2)N(C)CC[C@]314

Tests used:
[1] = Oral bioavailability of oxycodone conjugates (plasma oxycodone plus oxymorphone); settings: rats; for AUC % (Oral Bioavailability): Table G
[2] = stability 90 C., 20 min (V, BP, TW, BS) of hydrocodone conjugates; settings: for stability 90 C., 20 min BP: BP (abbreviation not defined); for stability 90 C., 20 min BS: BS (abbreviation not defined); for stability 90 C., 20 min TW: TW (abbreviation not defined); for stability 90 C., 20 min V: V (abbreviation not defined)
[3] = Oral bioavailability of hydrocodone conjugates (plasma hydrocodone plus hydromorphone); settings: for bioavailabiltty (% HC) oral AUC / bioavailabiltty (% HC) oral Cmax: rats, relative to hydrocodone; for Oral:IN Index AUC: ratio of oral to IN AUC (% HC); for Oral:IN Index Cmax: ratio of oral to IN Cmax (% HC)
[4] = Intranasal bioavailability of hydrocodone conjugates; settings: rats, relative to hydrocodone
[5] = n = 4 animals, analysis by LC-MS, OXY = 100

## COc1ccc2c3c1OC1C(OC(=O)[C@@H]4CCCN4C(=O)[C@H](CCC(=O)O)NC(=O)[C@@H](N)CCC(=O)O)=CCC4(O)[C@@H](C2)N(C)CC[C@]314 (stereo partly drawn) [Glu-Glu-Pro-OC]
[1]; [5]
  Oral (% AUC): 71 % AUC

## COc1ccc2c3c1OC1C(OC(=O)[C@@H](NC(=O)[C@H](CCC(=O)O)NC(=O)[C@@H](N)CCC(=O)O)C(C)C)=CCC4(O)[C@@H](C2)N(C)CC[C@]314 (stereo partly drawn) [Glu-Glu-Val-OC]
[1]; [5]
  Oral (% AUC): 55 % AUC

## CC[C@H](C)[C@H](NC(=O)[C@H](CCCCN)NC(=O)[C@@H](N)CCCCN)C(=O)OC1=CCC2(O)[C@H]3Cc4ccc(OC)c5c4[C@@]2(CCN3C)C1O5 (stereo partly drawn) [Lys-Lys-Ile-OC]
[1]; [5]
  Oral (% AUC): 74 % AUC

## COc1ccc2c3c1OC1C(OC(=O)[C@H](Cc4ccccc4)NC(=O)[C@H](CCC(=O)O)NC(=O)[C@@H](N)CCC(=O)O)=CCC4(O)[C@@H](C2)N(C)CC[C@]314 (stereo partly drawn) [Glu-Glu-Phe-OC]
[1]; [5]
  Oral (% AUC): 49 % AUC

## COc1ccc2c3c1OC1C(OC(=O)[C@H](Cc4ccccc4)NC(=O)[C@H](Cc4ccc(O)cc4)NC(=O)[C@@H](N)Cc4ccc(O)cc4)=CCC4(O)[C@@H](C2)N(C)CC[C@]314 (stereo partly drawn) [Tyr-Tyr-Phe-OC]
[1]; [5]
  Oral (% AUC): 73 % AUC

## COc1ccc2c3c1OC1C(OC(=O)[C@@H](NC(=O)[C@H](CCCCN)NC(=O)[C@@H](N)CCCCN)C(C)C)=CCC4(O)[C@@H](C2)N(C)CC[C@]314 (stereo partly drawn) [Lys-Lys-Val-OC]
[1]; [5]
  Oral (% AUC): 108 % AUC

## COc1ccc2c3c1OC1C(OC(=O)[C@@H](NC(=O)[C@H](Cc4ccc(O)cc4)NC(=O)[C@@H](N)Cc4ccc(O)cc4)C(C)C)=CCC4(O)[C@@H](C2)N(C)CC[C@]314 (stereo partly drawn) [Tyr-Tyr-Val-OC]
[1]
  AUC % (Oral Bioavailability): 124%
[1]; [5]
  Oral (% AUC): 124 % AUC

## COc1ccc2c3c1OC1C(OC(=O)[C@H](CC(C)C)NC(=O)[C@H](CCCCN)NC(=O)[C@@H](N)CCCCN)=CCC4(O)[C@@H](C2)N(C)CC[C@]314 (stereo partly drawn) [Lys-Lys-Leu-OC]
[1]; [5]
  Oral (% AUC): 46 % AUC

## COc1ccc2c3c1OC1C(OC(=O)[C@@H](NC(=O)[C@H](Cc4ccccc4)NC(=O)[C@@H](N)Cc4ccccc4)C(C)C)=CCC4(O)[C@@H](C2)N(C)CC[C@]314 (stereo partly drawn) [Phe-Phe-Val-OC]
[1]; [5]
  Oral (% AUC): 32 % AUC

## CC[C@H](C)[C@H](NC(=O)[C@H](Cc1ccccc1)NC(=O)[C@@H](N)Cc1ccccc1)C(=O)OC1=CCC2(O)[C@H]3Cc4ccc(OC)c5c4[C@@]2(CCN3C)C1O5 (stereo partly drawn) [Phe-Phe-Ile-OC]
[1]; [5]
  Oral (% AUC): 59 % AUC

## COc1ccc2c3c1OC1C(OC(=O)[C@H](Cc4ccccc4)NC(=O)[C@H](CCCCN)NC(=O)[C@@H](N)CCCCN)=CCC4(O)[C@@H](C2)N(C)CC[C@]314 (stereo partly drawn) [Lys-Lys-Phe-OC]
[1]; [5]
  Oral (% AUC): 37 % AUC

## COc1ccc2c3c1OC1C(OC(=O)[C@H](Cc4ccccc4)NC(=O)[C@@H](NC(=O)[C@@H](N)C(C)C)C(C)C)=CCC4(O)[C@@H](C2)N(C)CC[C@]314 (stereo partly drawn) [Val-Val-Phe-OC]
[1]; [5]
  Oral (% AUC): 120 % AUC

## COc1ccc2c3c1OC1C(OC(=O)[C@@H](NC(=O)[C@H](CC(C)C)NC(=O)[C@@H](N)CC(C)C)C(C)C)=CCC4(O)[C@@H](C2)N(C)CC[C@]314 (stereo partly drawn) [Leu-Leu-Val-OC]
[1]; [5]
  Oral (% AUC): 81 % AUC

## COc1ccc2c3c1OC1C(OC(=O)[C@H](CC(C)C)NC(=O)[C@H](CCC(=O)O)NC(=O)[C@@H](N)CCC(=O)O)=CCC4(O)[C@@H](C2)N(C)CC[C@]314 (stereo partly drawn) [Glu-Glu-Leu-OC]
[1]; [5]
  Oral (% AUC): 80 % AUC

## CC[C@H](C)[C@H](N)C(=O)N[C@H](C(=O)N[C@H](C(=O)OC1=CCC2(O)[C@H]3Cc4ccc(OC)c5c4[C@@]2(CCN3C)C1O5)[C@@H](C)CC)[C@@H](C)CC (stereo partly drawn) [Ile-Ile-Ile-OC]
[1]; [5]
  Oral (% AUC): 83 % AUC

## CC[C@H](C)[C@H](NC(=O)[C@H](CCC(=O)O)NC(=O)[C@@H](N)CCC(=O)O)C(=O)OC1=CCC2[C@H]3Cc4ccc(OC)c5c4[C@@]2(CCN3C)C1O5 (stereo partly drawn) [Glu-Glu-Ile-HC]
[2]
  stability 90 C., 20 min BP: 94
  stability 90 C., 20 min BS: 100
  stability 90 C., 20 min TW: 26
  stability 90 C., 20 min V: 0
[3]
  bioavailabiltty (% HC) oral AUC: 83 % HC
  bioavailabiltty (% HC) oral Cmax: 112 % HC
  Oral:IN Index AUC: 1.60
  Oral:IN Index Cmax: 1.90
[4]
  bioavailabiltty (% HC) IN AUC: 52 % HC
  bioavailabiltty (% HC) IN Cmax: 59 % HC

## CC[C@H](C)[C@H](NC(=O)CNC(=O)CN)C(=O)OC1=CCC2(O)[C@H]3Cc4ccc(OC)c5c4[C@@]2(CCN3C)C1O5 (stereo partly drawn) [Gly-Gly-Ile-OC]
[1]; n = 4, LC-MS, Dosed at 40% higher levels than calculated
  Oral (% AUC): 224 % AUC

## CC[C@H](C)[C@H](NC(=O)[C@@H]1CCCN1C(=O)[C@@H]1CCCN1)C(=O)OC1=CCC2(O)[C@H]3Cc4ccc(OC)c5c4[C@@]2(CCN3C)C1O5 (stereo partly drawn) [Pro-Pro-Ile-OC]
[1]
  AUC % (Oral Bioavailability): 85%
[1]; [5]
  Oral (% AUC): 85 % AUC

## COc1ccc2c3c1OC1C(OC(=O)[C@@H]4CCCN4C(=O)[C@H](Cc4ccc(O)cc4)NC(=O)[C@@H](N)Cc4ccc(O)cc4)=CCC4(O)[C@@H](C2)N(C)CC[C@]314 (stereo partly drawn) [Tyr-Tyr-Pro-OC]
[1]; [5]
  Oral (% AUC): 59 % AUC

## CC[C@H](C)[C@H](NC(=O)[C@H](CCC(=O)O)NC(=O)[C@@H](N)CCC(=O)O)C(=O)OC1=CCC2(O)[C@H]3Cc4ccc(OC)c5c4[C@@]2(CCN3C)C1O5 (stereo partly drawn) [Glu-Glu-Ile-OC]
[1]; [5]
  Oral (% AUC): 179 % AUC

## CC[C@H](C)[C@H](NC(=O)[C@H](Cc1ccc(O)cc1)NC(=O)[C@@H](N)Cc1ccc(O)cc1)C(=O)OC1=CCC2(O)[C@H]3Cc4ccc(OC)c5c4[C@@]2(CCN3C)C1O5 (stereo partly drawn) [Tyr-Tyr-Ile-OC]
[1]; [5]
  Oral (% AUC): 85 % AUC

## CC[C@H](C)[C@H](NC(=O)[C@H](CC(=O)O)NC(=O)[C@H](CC(=O)O)NC(=O)[C@H](CCC(=O)O)NC(=O)[C@@H](N)CCC(=O)O)C(=O)OC1=CCC2[C@H]3Cc4ccc(OC)c5c4[C@@]2(CCN3C)C1O5 (stereo partly drawn) [Glu2-Asp2-Ile-HC] (H-EEDDI-X1)
[2]
  stability 90 C., 20 min BP: 77
  stability 90 C., 20 min BS: 100
  stability 90 C., 20 min TW: 15
  stability 90 C., 20 min V: 1
[3]
  bioavailabiltty (% HC) oral AUC: 108 % HC
  bioavailabiltty (% HC) oral Cmax: 129 % HC
  Oral:IN Index AUC: 2.04
  Oral:IN Index Cmax: 1.59
[4]
  bioavailabiltty (% HC) IN AUC: 53 % HC
  bioavailabiltty (% HC) IN Cmax: 81 % HC

## COc1ccc2c3c1OC1C(OC(=O)[C@@H](NC(=O)[C@@H]4CCCN4C(=O)[C@@H]4CCCN4)C(C)C)=CCC4(O)[C@@H](C2)N(C)CC[C@]314 (stereo partly drawn) [Pro-Pro-Val-OC]
[1]
  AUC % (Oral Bioavailability): 152%
[1]; [5]
  Oral (% AUC): 152 % AUC

## COc1ccc2c3c1OC1C(OC(=O)[C@@H](NC(=O)CNC(=O)CN)C(C)C)=CCC4(O)[C@@H](C2)N(C)CC[C@]314 (stereo partly drawn) [Gly-Gly-Val-OC]
[1]; [5]
  Oral (% AUC): 123 % AUC

## COc1ccc2c3c1OC1C(OC(=O)[C@H](Cc4ccccc4)NC(=O)CNC(=O)CN)=CCC4(O)[C@@H](C2)N(C)CC[C@]314 (stereo partly drawn) [Gly-Gly-Phe-OC]
[1]; [5]
  Oral (% AUC): 163 % AUC

## CC[C@H](C)[C@H](NC(=O)CNC(=O)CNC(=O)[C@H](CCC(=O)O)NC(=O)[C@@H](N)CCC(=O)O)C(=O)OC1=CCC2[C@H]3Cc4ccc(OC)c5c4[C@@]2(CCN3C)C1O5 (stereo partly drawn) [Glu2-Gly2-Ile-HC, Glu2-Gly2-Ile-Hydrocodone] (H-EEGGI-X1)
[2]
  stability 90 C., 20 min BP: 99
  stability 90 C., 20 min BS: 99
  stability 90 C., 20 min TW: 23
  stability 90 C., 20 min V: 0
[3]
  bioavailabiltty (% HC) oral AUC: 81 % HC
  bioavailabiltty (% HC) oral Cmax: 77 % HC
[4]
  bioavailabiltty (% HC) IN AUC: 50 % HC
  bioavailabiltty (% HC) IN Cmax: 56 % HC
